Data taken from the supplement of paper PMC10065799, “High-throughput profiling of sequence recognition by tyrosine kinases and SH2 domains using bacterial peptide display” (eLife, 2023).

How the values were obtained:
SHP2-C SH2 = test: SH2 binding enrichment of the phosphorylated peptide, bacterial display (enrichment ratio); higher = better substrate or ligand; peptides without Tyr show the background
c-Src SH2 = test: as above
Grb2 SH2 = Grb2 SH2 (UniProt P62993); test: as above
Jak2 = Jak2 (UniProt O60674); test: phosphorylation enrichment, bacterial display (enrichment ratio); higher = better substrate or ligand; peptides without Tyr show the background
MERTK = MERTK (UniProt Q12866); test: as above
FGFR1 = FGFR1 (UniProt P11362); test: as above
Hck = Hck (UniProt P08631); test: as above
EPHB1 = EPHB1 (UniProt P54762); test: as above
AncSZ = test: as above
Fyn = Fyn (UniProt P06241); test: as above
Fes = Fes (UniProt P07332); test: as above
Fer (mouse) = test: as above
EPHB2 = EPHB2 (UniProt P29323); test: as above
FGFR3 = FGFR3 (UniProt P22607); test: as above
c-Abl (mouse) = test: as above
c-Src = test: as above
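Wherever SH2 binding enrichment of the phosphorylated peptide, bacterial display is given: peptide library displayed on the E. coli surface as eCPX fusions, selected cells deep-sequenced, score is each peptide's frequency after selection divided by its frequency in the input.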
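Wherever phosphorylation enrichment, bacterial display is given: 11-residue human phosphosite peptides and single-mutation variants displayed on the E. coli surface, counted by deep sequencing, each peptide's frequency after selection divided by its frequency in the unselected input library; frequency after pTyr selection over input frequency; kinase dosed for 20-30% of maximal phosphorylation in three min.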

Sequence of Jak2 (O60674 whole entry, looked up): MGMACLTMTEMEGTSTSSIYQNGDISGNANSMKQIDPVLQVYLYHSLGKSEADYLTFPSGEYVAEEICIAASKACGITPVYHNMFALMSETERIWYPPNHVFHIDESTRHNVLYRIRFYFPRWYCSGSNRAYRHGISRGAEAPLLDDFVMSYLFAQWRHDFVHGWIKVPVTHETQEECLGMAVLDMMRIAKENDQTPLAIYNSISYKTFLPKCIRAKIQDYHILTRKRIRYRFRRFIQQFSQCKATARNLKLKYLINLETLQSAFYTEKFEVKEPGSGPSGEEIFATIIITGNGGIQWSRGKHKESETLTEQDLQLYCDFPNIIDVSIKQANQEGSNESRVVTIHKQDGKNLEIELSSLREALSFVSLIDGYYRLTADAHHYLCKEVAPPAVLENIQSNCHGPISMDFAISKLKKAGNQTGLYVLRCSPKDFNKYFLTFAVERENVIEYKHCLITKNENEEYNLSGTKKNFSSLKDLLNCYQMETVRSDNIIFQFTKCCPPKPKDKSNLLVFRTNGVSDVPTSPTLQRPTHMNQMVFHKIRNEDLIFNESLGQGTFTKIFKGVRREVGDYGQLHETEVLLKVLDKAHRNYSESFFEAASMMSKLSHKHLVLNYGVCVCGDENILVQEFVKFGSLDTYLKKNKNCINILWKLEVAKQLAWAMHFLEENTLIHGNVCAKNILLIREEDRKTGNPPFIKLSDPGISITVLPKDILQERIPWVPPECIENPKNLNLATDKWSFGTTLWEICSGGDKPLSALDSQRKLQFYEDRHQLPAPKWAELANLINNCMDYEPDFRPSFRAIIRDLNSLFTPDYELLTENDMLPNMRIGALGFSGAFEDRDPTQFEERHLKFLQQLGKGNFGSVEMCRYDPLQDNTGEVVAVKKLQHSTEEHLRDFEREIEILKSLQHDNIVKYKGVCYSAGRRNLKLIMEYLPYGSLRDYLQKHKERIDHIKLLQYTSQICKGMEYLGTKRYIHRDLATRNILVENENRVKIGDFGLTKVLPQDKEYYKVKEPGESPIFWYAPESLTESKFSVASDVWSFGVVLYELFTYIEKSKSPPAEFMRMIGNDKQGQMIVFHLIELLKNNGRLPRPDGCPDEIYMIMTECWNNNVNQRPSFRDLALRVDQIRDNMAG
Sequence of Grb2 SH2 (P62993 whole entry, looked up): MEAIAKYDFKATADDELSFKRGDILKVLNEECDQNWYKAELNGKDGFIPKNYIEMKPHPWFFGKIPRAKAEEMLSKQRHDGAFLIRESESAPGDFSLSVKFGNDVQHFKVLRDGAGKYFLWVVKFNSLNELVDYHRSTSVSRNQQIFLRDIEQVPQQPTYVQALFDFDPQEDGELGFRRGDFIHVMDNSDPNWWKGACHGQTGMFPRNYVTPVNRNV
Sequence of Fes (P07332 whole entry, looked up): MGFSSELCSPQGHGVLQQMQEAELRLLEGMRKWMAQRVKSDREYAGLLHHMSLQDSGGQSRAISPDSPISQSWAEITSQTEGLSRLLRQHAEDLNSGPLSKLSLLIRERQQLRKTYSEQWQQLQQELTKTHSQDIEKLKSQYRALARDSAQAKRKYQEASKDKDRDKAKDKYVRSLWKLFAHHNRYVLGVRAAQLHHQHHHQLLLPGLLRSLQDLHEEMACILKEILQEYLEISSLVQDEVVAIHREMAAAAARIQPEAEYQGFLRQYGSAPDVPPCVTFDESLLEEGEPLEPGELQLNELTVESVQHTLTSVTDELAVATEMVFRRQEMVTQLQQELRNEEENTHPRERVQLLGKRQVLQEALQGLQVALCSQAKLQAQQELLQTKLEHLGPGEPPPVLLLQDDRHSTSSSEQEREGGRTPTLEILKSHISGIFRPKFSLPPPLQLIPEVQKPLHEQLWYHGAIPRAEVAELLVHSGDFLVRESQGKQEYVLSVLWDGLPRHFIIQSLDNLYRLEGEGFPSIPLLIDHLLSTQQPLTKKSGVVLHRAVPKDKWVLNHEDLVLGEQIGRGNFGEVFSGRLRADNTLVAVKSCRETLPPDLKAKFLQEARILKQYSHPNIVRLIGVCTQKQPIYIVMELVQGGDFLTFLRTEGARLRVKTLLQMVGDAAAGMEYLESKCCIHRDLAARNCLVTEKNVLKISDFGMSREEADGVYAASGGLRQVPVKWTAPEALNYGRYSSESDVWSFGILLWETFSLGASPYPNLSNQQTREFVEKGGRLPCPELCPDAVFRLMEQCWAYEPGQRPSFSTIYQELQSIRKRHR
Sequence of FGFR1 (P11362 whole entry, looked up): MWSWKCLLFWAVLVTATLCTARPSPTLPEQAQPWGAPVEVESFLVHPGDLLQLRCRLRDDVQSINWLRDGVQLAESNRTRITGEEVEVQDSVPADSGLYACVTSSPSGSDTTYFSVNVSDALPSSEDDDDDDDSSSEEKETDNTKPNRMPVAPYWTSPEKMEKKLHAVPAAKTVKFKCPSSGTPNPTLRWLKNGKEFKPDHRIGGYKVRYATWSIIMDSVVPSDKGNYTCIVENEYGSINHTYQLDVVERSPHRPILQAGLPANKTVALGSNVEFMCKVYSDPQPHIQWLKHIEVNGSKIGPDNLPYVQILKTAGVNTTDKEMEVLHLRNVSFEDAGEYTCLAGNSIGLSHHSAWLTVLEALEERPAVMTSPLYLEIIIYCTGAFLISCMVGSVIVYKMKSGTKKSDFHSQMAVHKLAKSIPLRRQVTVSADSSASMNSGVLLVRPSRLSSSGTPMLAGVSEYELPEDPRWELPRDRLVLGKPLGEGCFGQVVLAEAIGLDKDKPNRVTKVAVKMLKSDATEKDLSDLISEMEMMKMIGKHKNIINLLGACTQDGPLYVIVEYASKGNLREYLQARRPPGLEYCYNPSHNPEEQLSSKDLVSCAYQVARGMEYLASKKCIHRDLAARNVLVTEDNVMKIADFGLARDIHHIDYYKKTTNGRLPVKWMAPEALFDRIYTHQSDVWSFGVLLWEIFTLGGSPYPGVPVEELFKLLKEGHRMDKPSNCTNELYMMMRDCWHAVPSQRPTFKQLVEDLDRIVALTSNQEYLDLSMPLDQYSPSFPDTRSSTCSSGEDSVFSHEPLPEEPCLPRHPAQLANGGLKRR
Sequence of MERTK (Q12866 whole entry, looked up): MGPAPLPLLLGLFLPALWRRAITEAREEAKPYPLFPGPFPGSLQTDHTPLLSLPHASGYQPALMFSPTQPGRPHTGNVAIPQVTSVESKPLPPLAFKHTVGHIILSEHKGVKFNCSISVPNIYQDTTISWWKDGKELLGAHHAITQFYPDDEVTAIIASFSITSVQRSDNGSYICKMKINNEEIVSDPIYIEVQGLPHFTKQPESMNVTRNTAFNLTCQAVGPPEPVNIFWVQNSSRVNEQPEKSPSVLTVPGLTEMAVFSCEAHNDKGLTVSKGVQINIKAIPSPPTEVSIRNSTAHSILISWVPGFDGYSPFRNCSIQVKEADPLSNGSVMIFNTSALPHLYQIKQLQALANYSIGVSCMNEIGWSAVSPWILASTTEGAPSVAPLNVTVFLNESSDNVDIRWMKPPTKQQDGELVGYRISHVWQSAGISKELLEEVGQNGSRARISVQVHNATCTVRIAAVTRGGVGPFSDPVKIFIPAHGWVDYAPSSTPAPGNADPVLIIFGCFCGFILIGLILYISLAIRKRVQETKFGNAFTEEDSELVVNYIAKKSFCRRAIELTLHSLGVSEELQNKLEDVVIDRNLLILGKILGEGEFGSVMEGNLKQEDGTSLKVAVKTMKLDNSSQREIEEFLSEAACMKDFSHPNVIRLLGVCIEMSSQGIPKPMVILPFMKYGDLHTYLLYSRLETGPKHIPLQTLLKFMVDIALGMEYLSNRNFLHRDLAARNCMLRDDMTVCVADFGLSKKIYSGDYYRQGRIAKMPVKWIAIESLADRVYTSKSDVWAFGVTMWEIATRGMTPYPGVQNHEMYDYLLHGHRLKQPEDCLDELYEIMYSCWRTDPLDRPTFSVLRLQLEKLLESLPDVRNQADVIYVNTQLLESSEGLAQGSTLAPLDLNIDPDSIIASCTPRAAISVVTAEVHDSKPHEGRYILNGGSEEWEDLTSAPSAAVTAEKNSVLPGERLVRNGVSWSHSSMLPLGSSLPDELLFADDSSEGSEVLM
Sequence of Fyn (P06241 whole entry, looked up): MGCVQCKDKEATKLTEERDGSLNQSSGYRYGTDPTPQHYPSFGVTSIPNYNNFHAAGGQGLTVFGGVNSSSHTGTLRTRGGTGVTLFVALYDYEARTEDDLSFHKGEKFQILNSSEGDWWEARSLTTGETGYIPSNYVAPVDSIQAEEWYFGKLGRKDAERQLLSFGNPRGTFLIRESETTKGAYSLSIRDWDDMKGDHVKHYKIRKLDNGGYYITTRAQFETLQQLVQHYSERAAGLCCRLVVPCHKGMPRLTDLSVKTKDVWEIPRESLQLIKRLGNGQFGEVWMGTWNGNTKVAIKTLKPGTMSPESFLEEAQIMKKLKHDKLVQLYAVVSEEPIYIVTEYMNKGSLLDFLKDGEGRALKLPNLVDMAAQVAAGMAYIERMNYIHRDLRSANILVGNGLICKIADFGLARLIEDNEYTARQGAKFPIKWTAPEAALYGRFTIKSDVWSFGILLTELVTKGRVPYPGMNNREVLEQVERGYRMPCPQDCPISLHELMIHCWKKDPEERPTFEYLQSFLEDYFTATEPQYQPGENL
Sequence of Hck (P08631 whole entry, looked up): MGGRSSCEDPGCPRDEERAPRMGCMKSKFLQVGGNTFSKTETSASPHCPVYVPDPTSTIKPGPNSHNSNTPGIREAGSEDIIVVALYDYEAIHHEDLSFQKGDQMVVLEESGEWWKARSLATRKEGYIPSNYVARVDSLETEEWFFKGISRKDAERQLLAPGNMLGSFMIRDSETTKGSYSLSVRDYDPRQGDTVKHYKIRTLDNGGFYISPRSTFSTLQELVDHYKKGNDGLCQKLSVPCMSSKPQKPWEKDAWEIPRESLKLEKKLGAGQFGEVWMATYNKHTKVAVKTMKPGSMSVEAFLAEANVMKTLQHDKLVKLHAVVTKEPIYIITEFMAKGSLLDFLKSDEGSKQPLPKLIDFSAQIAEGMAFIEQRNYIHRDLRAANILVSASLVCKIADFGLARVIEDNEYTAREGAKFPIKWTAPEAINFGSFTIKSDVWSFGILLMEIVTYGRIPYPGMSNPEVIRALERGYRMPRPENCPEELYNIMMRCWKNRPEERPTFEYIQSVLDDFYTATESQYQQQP

Sequence | SH2 binding enrichment (SHP2-C SH2) | SH2 binding enrichment (c-Src SH2) | SH2 binding enrichment (Grb2 SH2) | phosphorylation enrichment (Jak2) | phosphorylation enrichment (MERTK) | phosphorylation enrichment (FGFR1) | phosphorylation enrichment (Hck) | phosphorylation enrichment (EPHB1) | phosphorylation enrichment (AncSZ) | phosphorylation enrichment (Fyn) | phosphorylation enrichment (Fes) | phosphorylation enrichment (Fer (mouse)) | phosphorylation enrichment (EPHB2) | phosphorylation enrichment (FGFR3) | phosphorylation enrichment (c-Abl (mouse)) | phosphorylation enrichment (c-Src)
HIILLYIFLKN [STXBP1_Y411_R406H] | 1.72 | 1.51 | 1.86 | 1.16 | 0.657 | 0.755 | 0.501 | 0.906 | 1.27 | 0.447 | 1.6 | 0.495 | 0.567 | 1.08 | 1.2 | 0.568
QPGTDYKIFLF [FN1_Y1970_YF] | 0.548 | 0.4 | 0.609 | 1.72 | 0.673 | 1.17 | 0.924 | 1.05 | 2.09 | 0.591 | 2.44 | 0.899 | 0.848 | 1.21 | 1.4 | 0.674
NVTGHYIPPFH [PPA2_Y59_S61P] | 0.994 | 0.538 | 0.779 | 0.498 | 0.659 | 0.396 | 0.418 | 0.455 | 0.518 | 0.445 | 0.679 | 0.395 | 0.393 | 0.463 | 0.735 | 0.443
HSLHDYKEALM [ADA2_Y337] | 0.426 | 0.418 | 0.702 | 0.696 | 0.431 | 0.371 | 0.342 | 0.546 | 0.663 | 0.444 | 0.844 | 0.44 | 0.448 | 0.567 | 0.664 | 0.522
IHETTYNSIMK [ACTA1_Y281] | 1.68 | 1.93 | 0.862 | 0.477 | 0.3 | 0.384 | 1.38 | 0.332 | 0.475 | 0.746 | 0.711 | 0.414 | 0.338 | 0.436 | 0.572 | 1.04
EERNPYFSSAR [MCCC2_Y520_G517R_YF] | 0.789 | 0.446 | 0.859 | 0.779 | 0.407 | 0.486 | 0.659 | 0.466 | 0.769 | 0.475 | 0.752 | 0.36 | 0.392 | 0.404 | 0.624 | 1.08
FPHVISARLWR [SMAD4_Y95_Y95S] | 1.08 | 0.468 | 1.11 | 0.805 | 0.458 | 0.477 | 0.429 | 0.419 | 1 | 0.581 | 0.962 | 0.524 | 0.547 | 0.557 | 0.701 | 0.498
YADPYYDYEIE [ZC3H18_Y372] | 0.545 | 2.04 | 0.787 | 1.24 | 2.18 | 9.62 | 1.06 | 2.05 | 1.95 | 2.52 | 1.31 | 1.58 | 1.94 | 7.39 | 0.853 | 3.01
GSRGKYSSGFH [ATM_Y332_R337H] | 0.649 | 0.905 | 1.04 | 0.439 | 0.452 | 0.452 | 0.391 | 0.417 | 0.464 | 0.421 | 0.535 | 0.409 | 0.3 | 0.605 | 0.579 | 0.45
SVVVHYEPPEV [TP53_Y220_P219H] | 0.757 | 1.68 | 0.849 | 0.758 | 0.71 | 0.525 | 0.537 | 0.699 | 1.15 | 0.484 | 1.02 | 1.86 | 0.616 | 0.647 | 1.72 | 0.485
TSFQMYDKGLV [IARS2_Y231_F227S_YF] | 0.538 | 0.315 | 0.547 | 1.03 | 0.438 | 0.651 | 0.934 | 0.596 | 0.925 | 0.649 | 0.846 | 0.877 | 0.746 | 0.82 | 0.473 | 0.475
KMKGDYFRFLA [YWHAG_Y130_YF] | 1.6 | 1.22 | 1.71 | 4.54 | 0.632 | 5.05 | 0.543 | 0.804 | 0.722 | 1.01 | 0.689 | 0.282 | 0.509 | 3.83 | 0.806 | 2.11
FDDIAHIRKTL [PIK3CA_Y1021_Y1021H] | 0.566 | 0.435 | 0.805 | 0.854 | 0.416 | 0.529 | 0.553 | 0.51 | 0.688 | 0.538 | 0.844 | 0.433 | 0.529 | 0.515 | 0.611 | 0.389
TKEPKYGGAGS [KIAA1210_Y1615_E1616G] | 0.983 | 0.487 | 1.08 | 0.416 | 0.384 | 0.405 | 0.361 | 0.431 | 0.5 | 0.459 | 0.55 | 0.457 | 0.44 | 0.548 | 0.462 | 0.409
GPIFRYDSGGA [CYP11B1_Y81_L83S] | 0.732 | 0.543 | 0.969 | 0.69 | 0.42 | 0.505 | 0.43 | 0.487 | 0.82 | 0.478 | 0.802 | 0.402 | 0.418 | 0.554 | 0.576 | 0.475
TQPSPYAVYLF [RPGRIP1_Y823_R827L] | 1.17 | 1.16 | 1.16 | 1.01 | 6.5 | 1.34 | 3.73 | 3.03 | 1.06 | 7.04 | 1.68 | 7.18 | 5.25 | 1.1 | 9.15 | 5.65
LKGIRYLTSGL [PIGA_Y82_R77L] | 1.03 | 0.564 | 1.32 | 0.959 | 0.644 | 0.691 | 0.937 | 1.12 | 1.03 | 1.05 | 1.09 | 1.01 | 0.913 | 0.452 | 1.28 | 0.762
NSFKFYMSDDI [ATRX_Y204_C200S_YF] | 0.79 | 0.604 | 0.982 | 1.12 | 0.497 | 0.53 | 0.54 | 0.56 | 1.14 | 0.517 | 1.28 | 0.488 | 0.552 | 0.693 | 0.657 | 0.574
SFDLDYDSVQP [MYC_Y16_N11S_YF] | 0.633 | 0.441 | 0.749 | 1.3 | 0.586 | 0.674 | 0.688 | 0.644 | 1.78 | 0.833 | 1.31 | 0.748 | 0.911 | 0.749 | 0.811 | 0.924
VKPENYRRLDV [VHL_Y175_I180V] | 0.635 | 0.465 | 0.778 | 0.463 | 0.465 | 0.429 | 0.387 | 0.561 | 0.532 | 0.461 | 0.593 | 0.334 | 0.386 | 0.506 | 0.814 | 0.372
WQQQSYLDFGI [CTNNB1_Y30_S33F] | 0.776 | 0.592 | 0.999 | 0.974 | 0.418 | 0.816 | 0.441 | 0.635 | 0.883 | 0.524 | 1.04 | 0.39 | 0.564 | 0.757 | 0.658 | 0.544
CLAKMYYSAVD [CP_Y539] | 0.902 | 3.43 | 0.942 | 0.956 | 2.33 | 0.812 | 0.708 | 1.02 | 1.14 | 0.572 | 1.18 | 1.18 | 0.701 | 0.936 | 0.674 | 0.722
EALDFYGEVKT [PTEN_Y155_R159K] | 0.757 | 0.471 | 0.813 | 1.6 | 0.409 | 0.53 | 1.15 | 0.719 | 1.19 | 1.2 | 1.56 | 0.78 | 0.722 | 0.823 | 0.844 | 1.21
MRALTYCDLHK [KCNH2_Y827_V822M] | 0.708 | 0.626 | 0.703 | 0.771 | 0.365 | 0.509 | 0.507 | 0.73 | 0.853 | 0.407 | 1.09 | 0.507 | 0.523 | 0.536 | 0.626 | 0.37
LVMFIYAIFGM [SCN1A_Y1684] | 1.8 | 1.2 | 2.09 | 1.94 | 1.13 | 0.952 | 0.777 | 1.03 | 1.49 | 1.21 | 1.88 | 1.19 | 1.03 | 1.41 | 1.55 | 1.99
SSTAMYSAPGR [PSMB1_Y8] | 0.557 | 1.08 | 0.774 | 0.58 | 1.66 | 0.45 | 2.28 | 0.497 | 0.75 | 0.484 | 0.524 | 0.857 | 0.674 | 0.464 | 6.02 | 0.631
PMWHPYKADVT [TP53TG5_Y255_V257A] | 1.04 | 0.484 | 0.791 | 0.911 | 0.428 | 0.309 | 0.615 | 0.657 | 0.851 | 0.565 | 1.12 | 0.588 | 0.572 | 0.6 | 0.94 | 0.756
HNGVSYFINLC [IGF2R_Y2024_YF] | 0.573 | 0.439 | 0.755 | 2.2 | 0.613 | 0.783 | 0.618 | 1.17 | 1.57 | 0.659 | 2.08 | 0.587 | 0.822 | 0.997 | 1.24 | 0.668
EQLRAYLEGLC [HLA-C_Y183_T187L] | 0.66 | 0.449 | 0.704 | 1.45 | 0.615 | 0.512 | 0.73 | 0.653 | 1.34 | 0.482 | 1.58 | 0.607 | 0.673 | 0.843 | 1.13 | 0.618
